The values that follow come from paper PMC10516927, “DNA-bridging by an archaeal histone variant via a unique tetramerisation interface” (Communications Biology, 2023).

Changes are numbered by the printed parent chain. Names may count otherwise.

For series [1], the target named is T1, MJ1647 (Methanocaldococcus jannaschii, UniProt Q59041 1-96).
T1 sequence: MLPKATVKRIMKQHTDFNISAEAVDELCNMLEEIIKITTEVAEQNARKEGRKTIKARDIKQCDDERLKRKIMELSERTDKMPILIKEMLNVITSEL
Description: DNA-bridging pull-down. The conditions noted are these: EMSA: 50 nM DNA, 10 mM Tris/HCl pH 8.0, 222 mM NaCl, 0.4 mM TCEP, 0.1 mg/ml BSA, 5% glycerol, 37 C 15 min; agarose EMSA: same with 110 mM NaCl, no glycerol …. For orientation: Mobility shift assays separate free from complexed probe on a gel.

In series [2] the target is MJ1647ΔTM, deletion variant of MJ1647 lacking the C-terminal 27 amino acids (Methanocaldococcus jannaschii) (UniProt Q59041). Description: native MS; nano-electrospray, protein exchanged into 0.5 M ammonium acetate, Synapt mass spectrometer.
Series [3] shares this target. Description: SEC-MALS; 100 µl protein at 2.0 mg/ml on a Superose12 10/300 column in buffer N(250), 0.5 ml/min. On the technique in general: SEC sorts molecules by how far they enter the pores of the column.
The target of series [4] is T1, MJ1647. Briefly: EMSA; single species; EMSA: 50 nM DNA, 10 mM Tris/HCl pH 8.0, 222 mM NaCl, 0.4 mM TCEP, 0.1 mg/ml BSA, 5% glycerol, 37 C 15 min; agarose EMSA: same with 110 mM NaCl, no glycerol; TPM and bridging buffers not in the material. The conditions noted are these: protein: recombinant; tags: untagged; chain copies: 4; label: Cy3 (Methods); 5'-32P for K80E and E95K; blunt.

The target of series [5] is T2, MJ1647ΔTM (Methanocaldococcus jannaschii, UniProt Q59041 1-69, del70-96).
T2 sequence: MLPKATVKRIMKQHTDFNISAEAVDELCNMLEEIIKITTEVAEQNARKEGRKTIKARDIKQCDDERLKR
Briefly: EMSA; pattern identical to A3; EMSA: 50 nM DNA, 10 mM Tris/HCl pH 8.0, 222 mM NaCl, 0.4 mM TCEP, 0.1 mg/ml BSA, 5% glycerol, 37 C 15 min; agarose EMSA: same with 110 mM NaCl, no glycerol; TPM and bridging buffers not in the material. The conditions noted are these: protein: recombinant, tags: untagged, chain copies: 2, label: Cy3 (Methods), blunt.

Series [6] has as its target T3, MJ1647 K80E (Methanocaldococcus jannaschii, UniProt Q59041 1-96, K80E).
T3 sequence: T1 sequence with K80E
Briefly: EMSA; faster (dimer) complex at low, tetramer complex at higher protein; EMSA: 50 nM DNA, 10 mM Tris/HCl pH 8.0, 222 mM NaCl, 0.4 mM TCEP, 0.1 mg/ml BSA, 5% glycerol, 37 C 15 min; agarose EMSA: same with 110 mM NaCl, no glycerol; TPM and bridging buffers not in the material. Particulars: protein: recombinant; tags: untagged; chain copies: 2; label: Cy3 (Methods); 5'-32P for K80E and E95K; blunt.

Series [7] has as its target T4, MJ1647 E95K (Methanocaldococcus jannaschii, UniProt Q59041 1-96, E95K).
T4 sequence: T1 sequence with E95K
The series is described as above. Particulars: protein: recombinant; tags: untagged; chain copies: 2; label: Cy3 (Methods); 5'-32P for K80E and E95K; blunt.

Series [8] deals with T5, A3 (Methanocaldococcus jannaschii, UniProt Q58655 1-67).
T5 sequence: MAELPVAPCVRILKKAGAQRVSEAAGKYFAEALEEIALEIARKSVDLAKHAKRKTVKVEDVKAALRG
Briefly: EMSA; two species (one or two dimers); EMSA: 50 nM DNA, 10 mM Tris/HCl pH 8.0, 222 mM NaCl, 0.4 mM TCEP, 0.1 mg/ml BSA, 5% glycerol, 37 C 15 min; agarose EMSA: same with 110 mM NaCl, no glycerol; TPM and bridging buffers not in the material. The conditions noted are these: protein: recombinant; tags: untagged; chain copies: 2; label: Cy3 (Methods); 5'-32P for K80E and E95K; blunt.

Series [9] concerns the molecule itself. Briefly: SEC-MALS; 100 µl protein at 2.0 mg/ml on a Superose12 10/300 column in buffer N(250), 0.5 ml/min.
For series [10], the target named is T6, histone variant MJ1647 from Methanocaldococcus jannaschii (Methanocaldococcus jannaschii (strain …, UniProt Q59041)).
T6 chain: T1 sequence
Briefly: co-expression with SEC and BS3 cross-linking/SDS-PAGE.

Series [11] concerns the molecule itself. Briefly: cross-linking; BS3 (5 mM), 20 µM monomers, modified N(200) buffer with 10 mM HEPES/NaOH pH 7.5, 25 °C 40 min, SDS-PAGE with SYPRO-Orange; A3 alone, MJ1647 alone and co-expressed A3 and MJ1647; no DNA.
Series [12] deals with the molecule itself. Description: crystal structure; X-ray, 1.9 Å; crystals from 0.1 M NaOAc pH 4.6, 10% PEG3350, 5% tacsimate pH 4.6; four chains in the asymmetric unit as two dimers.
Series [13] concerns the molecule itself. Description: SEC; elution profiles of purified wild-type MJ1647 and its charge-reversal and cysteine variants compared.
The target of series [14] is T5, A3. Description: EMSA; single shifted species; EMSA: 50 nM DNA, 10 mM Tris/HCl pH 8.0, 222 mM NaCl, 0.4 mM TCEP, 0.1 mg/ml BSA, 5% glycerol, 37 C 15 min; agarose EMSA: same with 110 mM NaCl, no glycerol; TPM and bridging buffers not in the material. The conditions noted are these: protein: recombinant; tags: untagged; chain copies: 2; label: Cy3 (Methods); blunt.

The molecule 685 bp TPM/bridging substrate had a K half in series [1] of 2500 nM.

“MJ1647ΔTM, deletion variant of MJ1647 lacking the C-terminal 27 amino acids (from UniProt Q59041 1-96) (domain or fragment)”: the stoichiometry N in series [2] and in series [3] was 2 throughout.

B1: 60 bp EMSA template (dsDNA)
DNA 1: CATACTGGTTCCAAAGCATGAAATAGTTCCAAAAGAAGAAGTTGAGGAGTTTTGAAGAGA
DNA 2: TCTCTTCAAAACTCCTCAACTTCTTCTTTTGGAACTATTTCATGCTTTGGAACCAGTATG
On to B1, for which the binding result is “binds” in series [4]; “binds” in [5] (5'-32P for K80E and E95K); “binds” in series [6]; “binds” in series [7]; “binds” in series [8].

B2: histone A3 (MJ1258) from Methanocaldococcus jannaschii (natural protein, UniProt Q58655 1-67, looked up)
chain: T5 sequence
notes: canonical histone A3 of Methanocaldococcus jannaschii, gene MJ1258, cloned into pET-21a(+) via NdeI and XhoI for expression of untagged protein; expected dimer mass 14.5 kDa; Untagged; also called canonical histone A3; source: E. coli Rosetta 2(DE3), purified (heparin, SP Sepharose, SEC); also co-expressed with MJ1647 from pETDuet-1 in E. coli and purified in the same way
Consider B2, for which the “stoichiometry N” value in series [9] was found to be 2. In addition, the binding result in series [10] is on record as “no binding”.

B3: histone variant MJ1647 from Methanocaldococcus jannaschii (natural protein)
chain: T1 sequence
notes: histone paralogue MJ1647 of Methanocaldococcus jannaschii, histone fold followed by a C-terminal extension of 27 amino acids (tetramerisation module, TM); gene cloned into pET-21a(+) via NdeI and XhoI for expression of untagged protein; expected tetramer mass 44.8 kDa; Untagged; Tetramer in solution (SEC-MALS, native MS); crystallised as dimers at pH 4.6; also called wild-type MJ1647; WT MJ1647; …
B3: the figures for the “stoichiometry N” value in [11] and in [12] were 4 and 2, respectively.

B4: MJ1647 C28S/C62S/E95C (natural protein, Methanocaldococcus jannaschii)
chain: T1 sequence with C28S, C62S, E95C
notes: MJ1647 of Methanocaldococcus jannaschii with C28S, C62S and E95C; also called single-cysteine substitution E95C; source: E. coli, purified (as the wild type)
With B4, in [13], the “stoichiometry N” value was determined as 4.

B5: MJ1647 C28S/C62S (cysteine-free background) (natural protein, Methanocaldococcus jannaschii)
chain: T1 sequence with C28S, C62S
notes: MJ1647 of Methanocaldococcus jannaschii with its two cysteines replaced by serine (C28S, C62S); also called C28S/C62S variant; source: E. coli, purified (as the wild type)
Take B5: the “stoichiometry N” value in series [13] was 4.

B6: MJ1647 K80E charge-reversal mutant (natural protein, Methanocaldococcus jannaschii)
chain: T1 sequence with K80E
notes: MJ1647 of Methanocaldococcus jannaschii with the substitution K80E; source: E. coli, purified (as the wild type; plasmid by site-directed mutagenesis or NEBuilder HiFi DNA assembly)
In the case of B6, the binding result in series [13] is on record as “binds”.

B7: MJ1647 E95K charge-reversal mutant (natural protein, Methanocaldococcus jannaschii)
chain: T1 sequence with E95K
notes: MJ1647 of Methanocaldococcus jannaschii with the substitution E95K; source: E. coli, purified (as the wild type; plasmid by site-directed mutagenesis or NEBuilder HiFi DNA assembly)
Turning to B7, in series [13], the binding result is “binds”.

B8: MJ1647 K80E/E95K double charge-reversal mutant (natural protein, Methanocaldococcus jannaschii)
chain: T1 sequence with K80E, E95K
notes: MJ1647 of Methanocaldococcus jannaschii with the substitutions K80E and E95K; source: E. coli, purified (as the wild type; plasmid by site-directed mutagenesis or NEBuilder HiFi DNA assembly)
As to B8, in series [13], the “stoichiometry N” value amounted to 4.

B9: MJ1647 C28S/C62S/K80C (natural protein, Methanocaldococcus jannaschii)
chain: T1 sequence with C28S, C62S, K80C
notes: MJ1647 of Methanocaldococcus jannaschii with C28S, C62S and K80C; also called single-cysteine substitution K80C; source: E. coli, purified (as the wild type)
Consider B9, for which, in series [13], the “stoichiometry N” value stood at 4.

B10: MJ1647 C28S/C62S/K80C/E95C (double-cysteine variant) (natural protein, Methanocaldococcus jannaschii)
chain: T1 sequence with C28S, C62S, K80C, E95C
modifications: disulfide bond between C80 and C95 of two chains (reduced only at 25 mM TCEP)
notes: MJ1647 of Methanocaldococcus jannaschii with C28S, C62S, K80C and E95C; also called double-cysteine substitution; source: E. coli, purified (as the wild type)
Take B10: the “stoichiometry N” value in series [13] was determined as 4.

B11: 30 bp EMSA template (dsDNA)
DNA 1: CATACTGGTTCCAAAGCATGAAATAGTTCCAA
DNA 2: TTGGAACTATTTCATGCTTTGGAACCAGTATG
Consider B11, for which the binding result in series [14] and in [5] was “binds” throughout.

As a reminder, the stoichiometry N is the number of molecules, sites or subunits per partner or assembly.
